Laboratory results from US20200199250A1 (KYMAB, published 2020).

Biological target: human factor X (human, UniProt P00742 41-179; P00742 183-488)
Test: cell-based or functional assay

human factor X, sequence (P00742 41-179, chain 1 of 2): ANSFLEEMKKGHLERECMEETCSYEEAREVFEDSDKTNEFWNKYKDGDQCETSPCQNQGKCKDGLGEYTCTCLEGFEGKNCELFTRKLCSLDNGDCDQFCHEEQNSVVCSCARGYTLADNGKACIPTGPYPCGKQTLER
human factor X, sequence (P00742 183-488, chain 2 of 2): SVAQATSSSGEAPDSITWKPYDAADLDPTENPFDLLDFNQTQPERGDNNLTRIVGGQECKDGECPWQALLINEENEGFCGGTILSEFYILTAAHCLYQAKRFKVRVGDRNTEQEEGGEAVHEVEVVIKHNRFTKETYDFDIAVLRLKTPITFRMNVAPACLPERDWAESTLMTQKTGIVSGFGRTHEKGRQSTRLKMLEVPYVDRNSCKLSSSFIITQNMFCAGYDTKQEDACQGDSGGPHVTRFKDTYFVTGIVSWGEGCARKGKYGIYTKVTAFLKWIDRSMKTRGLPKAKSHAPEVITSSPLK

EC50, Hyphen chromogenic FVIII mimetic activity assay (FXa generation with added FX and FIXa in diluted FVIII deficient plasma; OD405): 5.92 nM
B1: IXAX-1280.0999.0325 (bispecific antibody, human IgG4 S228P, lambda)
heavy 1: EVQLVESGGGFVQPGGSLRLSCAVSGFRFNSYWMSWVRQAPGKGLEWVANINQDGSRKFYVASVKGRFTMSRDNAKKSVYVQMNSLRAEDTAVYYCAREGYSSIKYYGMDVWGQGTTVTVSSASTKGPSVFPLAPCSRSTSESTAALGCLVKDYFPEPVTVSWNSGALTSGVHTFPAVLQSSGLYSLSSVVTVPSSSLGTQTYTCNVDHKPSNTKVDKRVESKYGPPCPPCPAPEFLGGPSVFLFPPKPKDTLMISRTPEVTCVVVDVSQEDPEVQFNWYVDGVEVHNAKTKPREEQYNSTYRVVSVLTVLHQDWLNGKEYKCKVSNKGLPSSIEKTISKAKGQPREPQVYTLPPSQEEMTKNQVSLTCLVKGFYPSDIAVEWESNGQPENNYKTTPPVLDSDGSFFLYSKLTVDKSRWQEGNVFSCSVMHEALHNHYTQESLSLSP
heavy 2: QVQLIQSGAKVKKPGASVKVSCKASRYKFTSYYMHWVRQAPGQGLEWMGIINPKSGSTSYAQKFQGRVTMTRDTSTSTVYMELSSLRSEDTAVYYCARDGYGSFSRLIQLWGQGTLVTVSSASTKGPSVFPLAPCSRSTSESTAALGCLVKDYFPEPVTVSWNSGALTSGVHTFPAVLQSSGLYSLSSVVTVPSSSLGTQTYTCNVDHKPSNTKVDKRVESKYGPPCPPCPAPEFLGGPSVFLFPPKPKDTLMISRTPEVTCVVVDVSQEDPEVQFNWYVDGVEVHNAKTKPREEQYNSTYRVVSVLTVLHQDWLNGKEYKCKVSNKGLPSSIEKTISKAKGQPREPQVYTLPPSQKEMTKNQVSLTCLVKGFYPSDIAVEWESNGQPENNYKTTPPVLDSDGSFFLYSKLTVDKSRWQEGNVFSCSVMHEALHNHYTQKSLSLSP
light: YVLTQPPSVSVAPGETARITCGGDNIGRKSVYWYQQKSGQAPVLVIYYDSDRPSGIPERFSGSNSGNTATLTISRVEAGDEADYYCQVWDGSSDHWVFGGGTKLTVLGQPKAAPSVTLFPPSSEELQANKATLVCLISDFYPGAVTVAWKADSSPVKAGVETTTPSKQSNNKYAASSYLSLTPEQWKSHKSYSCQVTHEGSTVEKTVAPTECS
